Assay results taken from FireProtDB (doi:10.1021/ja068849o).

B1: Outer membrane protein A, P0A910 (parent)
chain: MKKTAIAIAVALAGFATVAQAAPKDNTWYTGAKLGWSQYHDTGFINNNGPTHENQLGAGAFGGYQVNPYVGFEMGYDWLGRMPYKGSVENGAYKAQGVQLTAKLGYPITDDLDIYTRLGGMVWRADTKSNVYGKNHDTGVSPVFAGGVEYAITPEIATRLEYQWTNNIGDAHTIGTRPDNGMLSLGVSYRFGQGEAAPVVAPAPAPAPEVQTKHFTLKSDVLFNFNKATLKPEGQAALDQLYSQLSNLDPKDGSVVVLGYTDRIGSDAYNQGLSERRAQSVVDYLISKGIPADKISARGMGESNPVTGNTCDNVKQRAALIDCLAPDRRVEIEVKGIKDVVTQPQA

Variants of: B1
Conditions: Escherichia coli (strain K12); pH 9.2; 37 °C; Urea; Fluorescence; Glycine 10 mM; reversible: Yes; structure 1QJP; whole UniProt chain shown

Variant	ddG of mutation (higher = less stable) [kcal/mol]	denaturant m value [kcal/mol/M]	denaturant midpoint (higher = more stable) [M]	unfolding free energy [kcal/mol]
Y76A W78A	4.2	2.4	2.1	5.1
F191A	2.4	2.3	3	6.9
Y189A	0.2	3.1	2.9	9.1
W164A	3.1	2.2	2.8	6.2
Y150A	2.7	2.4	2.8	6.6
W36A	2	2.4	3.1	7.3
W28A Y64A	6.4	1.9	1.6	2.9
Y189A F191A	1.2	3.1	2.6	8.1
F144A Y162A	5.3	2.1	1.9	4
Y162A W164A	5.7	2.2	1.6	3.6
Y64A	3.8	2.2	2.6	5.5
F144A W164A	3.9	2.3	2.4	5.4
W28A	3.6	1.9	3	5.7
F72A	1.2	2.3	3.5	8.1
Y76A	2.5	2.2	3.1	6.8
W78A	2	2.4	3.1	7.3
F144A Y162A W164A	6.8	2	1.2	2.5
